Data on seven molecules can be found in article PMC11477141, “Chemokine Receptor N-Terminus Charge Dictates Reliance on Post-Translational Modifications for Effective Ligand Capture and Following Boosting by Defense Peptides” (International Journal of Molecular Sciences, 2024).

Read-outs that look alike come from different tables or passages of the source. Where no end group is shown, it is not given here.

Assay [1] deals with CCL2 (Homo sapiens) (UniProt P13500). The conditions noted are these: cited from earlier work.
The target of the next assay is CCR2. The conditions noted are these: mean ± SD; SD; read-out: binding affinity, Kd, for the WT receptor CCR2; cited from earlier work. From the text: (§1) The reliance on electrostatic interactions between basic amino acids in the chemokine and acidic regions in the receptor N-terminus for chemokine receptor binding is illustrated by a study carried out by Hemmerich et al.. To investigate the influence of charge, hydrophobicity, and aromaticity on binding of CCL2 to its cognate receptor CCR2, this group substituted all surface-exposed residues on CCL2 by alanine. […] In contr ...

The next assay deals with CCR2 D25A/D27A mutant. The conditions noted are these: cited from earlier work.
Text: as §1

Another assay addresses T1, CCR1 (Homo sapiens, UniProt P32246).
T1 construct: expressed in transfected cells; host or cells: CHO-K1, CHO-pgsB618 (GAG-minus), HEK293 WT / DeltaSia / sC
T1 sequence (P32246 1-355): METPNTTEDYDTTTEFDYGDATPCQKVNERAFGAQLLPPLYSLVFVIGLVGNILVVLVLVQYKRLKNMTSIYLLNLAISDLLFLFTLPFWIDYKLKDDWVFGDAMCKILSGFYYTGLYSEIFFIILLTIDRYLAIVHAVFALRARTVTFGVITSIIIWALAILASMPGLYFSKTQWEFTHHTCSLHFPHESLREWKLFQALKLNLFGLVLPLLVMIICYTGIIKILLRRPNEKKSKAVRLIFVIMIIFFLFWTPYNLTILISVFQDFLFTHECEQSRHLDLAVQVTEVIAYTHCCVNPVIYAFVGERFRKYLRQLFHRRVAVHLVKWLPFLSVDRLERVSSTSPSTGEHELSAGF
Briefly: BRET CAMYEL cAMP sensor assay of ligand-induced Gαi signaling via CCR1. The following applies: n = 3. The format is cell-based. Here is the method: For quantification of signaling initiated immediate downstream of receptor activation, we used the cAMP binding CAMYEL sensor to perform bioluminescence resonance energy transfer (BRET)-based assays. Shortly, in this assay increased receptor activation leads to an increase in BRET ratio. For detailed information see the Materials and Methods section.
In signaling assays testing the boosting ability of basic peptides, transfected cells were aliquoted into 96-well plates in the presence of 10 µM peptide or PBS vehicle. After R-Luc substrate addition, chemokines were added to reach final concentrations ranging from 0–100 nM (0, 0.1, 1, 10, and 100 nM) and forskolin was applied before reading emission at 475 and 525 nm.
BRET measurements of Gαi signaling and β-arrestin recruitment: Cells were seeded in 6-well plates (500,000 cells/well) and transiently transfected the following day. For BRET measurements of Gαi signaling, cells were transfected with vectors encoding the human chemokine receptors as indicated (160 ng/well) and the CAMYEL sensor (cAMP sensor, YFP-Epac-RLuc) (840 ng/well) using Lipofectamine (6 µL/well). Briefly, DNA was dissolved in 125 µL OPTI-MEM and Lipofectamine was dissolved in 125 µL OPTI-MEM. The DNA and Lipofectamine solutions were combined into a transfection mixture. The transfection mixture was added dropwise to cells incubated in OPTI-MEM (1 mL/well). Transfections were terminated after 5 h by adding 1 mL of fresh culture medium on top of the OPTI-MEM. The following day the cells were loosened from the plates in PBS with 5 mM glucose and subsequently aliquoted in white 96-well iso plates (~25,000 cells/well). When using C21TP variants and defense peptides (hBD2 and histatin), these were added to a final concentration of 10 μM/well, while an equal amount of PBS was added to control cells. The bioluminescence substrate coelenterazine was added to a final conc. of 5 µM. After 10 min, varying ligand concentrations were added. For BRET measurements of Gαi signaling, forskolin was added 5 min after the addition of the ligand, to a final conc. of 5 µM. The plates were kept in the dark at all times. A Perkin Elmer Envision machine was used for measuring the emission signals at 530 and 480 nm. The BRET signal is determined as the ratio eYFP (530 nm)/Rluc (480 nm).
BRET principle with CAMYEL: For quantification of signaling initiated immediately downstream of receptor activation, we used the cAMP binding CAMYEL sensor to perform bioluminescence resonance energy transfer (BRET) based assays. In this assay we measure changes in intracellular cAMP levels in response to receptor activation. Activation of chemokine receptors lead to a decrease in cAMP through inhibition of adenylate cyclase (AC). In the current setup we initially add forskolin that stimulates AC directly to induce an increase in intracellular cAMP, and we then measure the ability of a ligand (chemokine) to counteract the forskolin-induced increase in cAMP. The cAMP sensor (CAMYEL cAMP sensor, YFP-Epac-RLuc) carries the donor Renilla luciferase (Rluc) and the acceptor YFP. Coelenterazine is a substrate for Rluc that will emit light at around 475 nm upon enzymatic cleavage catalyzed by Rluc. When Rluc and YFP are in close proximity, the energy from the emitted light from coelenterazine can be transferred to YFP, resulting in an excitation of YFP, leading to a BRET signal around 525 nm. EPAC is a cAMP binding protein that changes conformation upon cAMP binding. During low cAMP concentrations, Rluc and YFP are near each other, and a strong BRET signal at 525 nm is obtained. When cAMP levels increase, cAMP will bind to EPAC, creating a conformational change, separating Rluc and YFP, reducing the BRET ratio, and increasing the emission from Rluc at 475 nm. Thus, by measuring the ratio between the cAMP-bound (475 nm) and the cAMP-free (525 nm) state of CAMYEL we obtain a measure of receptor activation. […]
(In general: Bioluminescence resonance energy transfer reports proximity on the nanometre scale.)

In assay [2] the target is fully sulfated version of the CCR1 N-terminal peptide. Details: method as in PMID 30567735. The following applies: read-out: affinity for the fully sulfated version of the CCR1 N-terminal peptide; cited from earlier work.
The target in assay [3] is T2, chemokine receptor CCR1 (untagged, wild type) (human) (UniProt P32246).
T2 sequence: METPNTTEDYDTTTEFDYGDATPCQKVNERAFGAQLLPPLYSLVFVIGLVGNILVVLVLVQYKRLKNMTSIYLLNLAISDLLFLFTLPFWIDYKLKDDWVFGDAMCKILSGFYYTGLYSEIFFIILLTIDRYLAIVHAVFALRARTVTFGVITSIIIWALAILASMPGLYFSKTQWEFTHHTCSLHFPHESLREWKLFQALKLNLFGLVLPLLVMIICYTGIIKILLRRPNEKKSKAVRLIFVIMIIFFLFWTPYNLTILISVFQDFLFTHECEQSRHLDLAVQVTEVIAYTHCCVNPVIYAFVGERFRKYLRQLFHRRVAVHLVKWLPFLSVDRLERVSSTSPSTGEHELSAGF

Assay [4] concerns the target chemokine receptor CCR5 (untagged, wild type) (human) (UniProt P51681).
The subject of assay [5] is peptide corresponding to the CCR2 receptor N-terminus. The following applies: cited from earlier work.
The target in another assay is naked CCR1 N-terminus (Homo sapiens, UniProt P32246). Briefly: Fluorescence polarization binding to FAM-labeled CCR1 N-terminal peptide. The conditions noted are these: FAM-labeled CCR1 N-terminal peptide. How it is done:
(§2) Fluorescence polarization (FP) assay: The carboxyfluorescein (FAM)-labeled peptides representing the CCR1 and CCR5 N-termini functioned as the probes for quantifying the interaction between the receptor N-terminus and C21TP^81-111. The probe was diluted in FP buffer (1:3, PBS:MilliQ) and 10 µL was added to a final concentration of 250 nM per well in a black 384-well plate (Corning). The C21TP^81-111 peptide (2 mM) was diluted using a two-fold dilution series; 30 µL of the peptide was added to each well to final concentrations ranging from 12.21 nM to 100 µM. Blanks containing 10 µL probe and 30 µL FP buffer were included. The plate was spun down at 1000 rpm for 1 min and the FP signal was measured on a Flex station using SoftMax Pro software 7.0. Each experiment was conducted in triplicate. The binding curves were generated by plotting the FP signal, expressed as millipolarization units (mP), against C21TP^81-111 concentration. The dissociation constant (Kd) value was calculated using GraphPad Prism 9.
(§3) Probes: • CCR1: (5,6-FAM)-[…], • CCR5: (5,6-FAM)-ADYQVSSPIYDINYYTSEP.
Background: Fluorescence polarisation rises when a labelled molecule tumbles more slowly, as on binding a larger partner.

In a further assay the test system is naked CCR5 N-terminus. Nature of the assay: Fluorescence polarization binding to FAM-labeled CCR5 N-terminal peptide. Details: species or system human. How it is done:
as §2, §3

The target of a further assay is CCL7 (Homo sapiens) (UniProt P80098). The following applies: cited from earlier work.
The target in the next assay is CCL5 (Homo sapiens) (UniProt P13501). The following applies: cited from earlier work.
Assay [6] deals with CCL2 (Homo sapiens) (UniProt P13500). The following applies: cited from earlier work. The source holds these as a separate data set.
The target in assay [7] is T3, FAM-labelled peptide corresponding to the naked (unmodified) CCR1 N-terminus (human, 5,6-carboxyfluorescein (5,6-FAM) on the N-terminus).
T3 construct: first printed residue of the probe; stretch of the N-terminus of the chemokine receptor CCR1, not sulfated, not glycosylated; also called CCR1 N-terminal peptide; CCR1 probe
T3 peptide: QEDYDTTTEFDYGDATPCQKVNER
Briefly: fluorescence polarisation; FAM-labelled receptor N-terminal peptide as probe at 250 nM in FP buffer (1:3, PBS:MilliQ), black 384-well plate; basic peptide titrated in a two-fold series, 12.21 nM to 100 µM (told for C21TP^81-111); triplicates; Kd fitted in GraphPad Prism 9. The conditions noted are these: both partners purified.

Setting [8] is: CHO-K1 cells, 10 µM peptide, chemokine 0-100 nM.

chemokine receptor CCR5 (untagged, wild type) (human), sequence (P51681 whole entry): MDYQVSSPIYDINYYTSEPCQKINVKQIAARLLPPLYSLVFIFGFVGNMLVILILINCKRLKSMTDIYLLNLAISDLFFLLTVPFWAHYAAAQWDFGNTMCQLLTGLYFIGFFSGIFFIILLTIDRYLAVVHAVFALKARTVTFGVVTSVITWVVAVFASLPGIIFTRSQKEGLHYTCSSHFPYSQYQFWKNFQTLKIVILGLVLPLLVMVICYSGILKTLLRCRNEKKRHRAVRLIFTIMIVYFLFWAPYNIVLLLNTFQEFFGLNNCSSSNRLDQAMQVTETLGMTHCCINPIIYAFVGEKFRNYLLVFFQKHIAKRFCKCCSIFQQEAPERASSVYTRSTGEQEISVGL
CCL2 (Homo sapiens), sequence (P13500 24-99): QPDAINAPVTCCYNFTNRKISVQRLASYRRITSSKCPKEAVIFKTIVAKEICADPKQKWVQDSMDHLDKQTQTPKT
CCL7 (Homo sapiens), sequence (P80098 24-99): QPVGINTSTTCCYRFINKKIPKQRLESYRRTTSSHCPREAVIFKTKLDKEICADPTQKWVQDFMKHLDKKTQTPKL
CCL5 (Homo sapiens), sequence (P13501 24-91): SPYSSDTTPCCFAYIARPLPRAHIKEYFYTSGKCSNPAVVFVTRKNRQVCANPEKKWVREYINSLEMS

In the case of CCR2 (from UniProt P41597), the Kd with CCL2 (Homo sapiens) [1] is over 3 nM.

Take CCL2: human chemokine from Peprotech: the Kd is 0.066 ± 0.01 nM at CCR2; at least 3 nM at CCR2 D25A/D27A mutant (read-out: binding affinity, Kd, for the D25A/D27A mutant version of CCR2); 100 nM in assay [2]. In addition, the “reduction in affinity, D25A/D27A mutant versus WT CCR2” value in the assay on CCR2 D25A/D27A mutant is given as “approximately 50 fold”. For the same molecule, the “Gαi signaling response of M1-CCR1 to ligand” value with CCR1 (M1-tagged CCR1, HEK293 WT cells) was “to a minor degree”.

For the molecule “Human CCL5 (from UniProt P13501 24-91) (ligand)”, in assay [3], the LogEC50 of CCL5-induced Gαi signaling (CAMYEL cAMP BRET) via CCR1 in CHO GAG-minus cells was -9.42 and the LogEC50 of CCL5-induced Gαi signaling (CAMYEL cAMP BRET) via CCR1 in CHO GAG-plus (WT) cells was -8.89. In assay [4], the LogEC50 of CCL5-induced Gαi signaling (CAMYEL cAMP BRET) via CCR5 in CHO GAG-minus cells is -9.63 and the LogEC50 of CCL5-induced Gαi signaling (CAMYEL cAMP BRET) via CCR5 in CHO GAG-plus (WT) cells was -7.52.

Regarding CCL7: human chemokine from Peprotech, in assay [5], the “increase of chemokine binding by tyrosine sulfation of the CCR2 N-terminus peptide” value is reported as “up to 36 fold”. Also, the “Gαi signaling via CCR1 in DeltaSia and sC cells compared to WT cells” value with CCR1 (HEK293 DeltaSia and sC) is “persists in DeltaSia and sC to almost the same high level as observed in WT cells”. In [2], the Kd is 100 nM.

With “human beta defensin 2 (GIGDPVTCLKSGAICHPVFCPRRYKQIGTCGLPGTKCCKKP; ends and bridges not checked; cysteine pairing not given here) [hBD2, human anti-microbial / host defense peptide, from Caslo, reference compound]”, the “binding to the naked CCR1 N-terminus” value in the assay with naked CCR1 N-terminus was “bind in a dose-dependent manner”. In the assay with CCR1 (setting [8]), the “boosting of CCL5-induced Gαi signaling via CCR1” value was “as efficient in boosting signaling via CCR1 by CCL5 and CCL7 as C21TP^81-111”; the “boosting of CCL7-induced Gαi signaling via CCR1” value was “as efficient in boosting signaling via CCR1 by CCL5 and CCL7 as C21TP^81-111”; the “effect on CCL3-induced Gαi signaling via CCR1” value is “not affected”. Besides, the “binding to the naked CCR5 N-terminus” value in the assay on naked CCR5 N-terminus is on record as “neither of the HDPs bound”.

In the case of CCR1 N-terminus (from UniProt P32246), the Kd with CCL7 (Homo sapiens), with CCL5 (Homo sapiens) and with CCL2 (Homo sapiens) [6] was 100 nM in each case.

B1: C21TP^81-111, basic C-terminal peptide of the chemokine CCL21 (last 31 aa, residues 81-111) (peptide, UniProt O00585 104-134, looked up)
peptide: RKDRGASKTGKKGKGSKGCKRTERSQTPKGP
notes: also called C-terminal peptide of CCL21; source: bought: Caslo (Lyngby, Denmark)
The molecule B1 displayed a Kd in assay [7] of about 2890 nM.
